Here are results for 1 molecule from publication doi:10.1101/2021.12.02.470928, “The PNUTS-PAD domain recruits MYC to the PNUTS:PP1 phosphatase complex via the oncogenic MYC-MB0 region” (bioRxiv, 2021).

The target of this assay is T1, PNUTS(1-148), PNUTS amino-terminal domain (PAD) (UniProt Q96QC0 1-148).
T1 construct: PNUTS (PP1 nuclear targeting subunit), residues 1-148, termed PAD; Vector pET28-MHL (RRID:Addgene_26096) with N-terminal His6 tag and TEV site; Used 13C,15N-labelled in some NMR experiments; also called apo PAD; source: E. coli BL21 (DE3), purified (Ni-NTA, gel filtration)
T1 sequence (looked up): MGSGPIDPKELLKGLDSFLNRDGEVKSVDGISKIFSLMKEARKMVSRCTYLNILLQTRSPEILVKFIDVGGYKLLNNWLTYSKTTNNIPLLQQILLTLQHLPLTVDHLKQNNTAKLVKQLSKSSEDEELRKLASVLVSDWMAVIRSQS
Nature of the assay: BLI; C-terminally biotinylated MYC constructs or N-terminally biotinylated peptides on SA biosensors, dipped into serial dilutions of PAD (WT or mutant); Octet RED384; room temperature; HBS-EP (10 mM HEPES pH 7.4, 150 mM NaCl, 3 mM EDTA, 0.005% P20) with 0.002 mg/ml BSA; Kd from steady-state response curves; apparent. To be noted: both partners purified.

B1: biotinylated MYC(1-88) with C-terminal AVI tag (domain or fragment, UniProt P01106-2 16-103, looked up)
chain: MPLNVSFTNRNYDLDYDSVQPYFYCDEEENFYQQQQQSELQPPAPSEDIWKKFELLPTPPLSPSRRSGLCSPSYVAVTPFSLRGDNDG
modifications: biotin on the C-terminal AVI tag
notes: MYC, residues 1-88 (contains MB0 and MBI); Purified 'as described above'; also called wild-type MYC(1-88); recombinant biotinylated MYC N-terminal protein; source: E. coli BL21 (DE3)-BirA, biotinylated by co-expressed BirA, purified; not shown: AVI tag, C-terminal, kept
On to B1, for which the Kd is 3.5 µM.
